The term Kd denotes a measure of binding affinity in units of concentration. The low end stands for a tighter complex, the high end for a looser complex.

The record followed here is patent US20260124314A1, “ANTl-5T4 ANTIGEN BINDING DOMAINS, ANTIBODY-DRUG CONJUGATES AND METHODS OF USE THEREOF” (Salubris Biotherapeutics, Inc., priority 2023, published 2026).

Common to all, as to test: FcγR binding activity, Biacore SPR
What all share (conditions): antibody captured on protein A chip, receptor 0.41 nM to 100 nM
On the technique in general: SPR reads the build-up and loss of mass on a sensor chip optically.

For one test, the target named is T1, FcγRIIIa (158V) (Homo sapiens, UniProt P08637, F176V).
T1 construct: purchased Sino Biological
The protocol: (§1) A total of 5 Fc receptors, including FcγRI (Abcam), FcγRIIa, FcγRIIb, FcγRIIIa (158V), and FcγRIIIb (Sino Biological), were analyzed. One parental anti-5T4 Antibody (Ab1) without Fc mutations, was used as a positive control for FcR binding. SPR kinetic experiments were performed on Biacore 8K systems (GE Healthcare) with HBS-EP+ as running buffer. […] Capture level for each ligand was maintained between 50-100RU. […] After each binding cycle, the sensor chip was regenerated with glycine solution, pH 1.5. The resulting sensorgrams were fitted with a one-to-one binding model to extract kinetic constants using Biacore 8K Evaluation Software.

A further test addresses T2, FcγRI (Homo sapiens, UniProt P12314).
T2 construct: purchased Abcam
The protocol:
as §1

A further test deals with T3, FcγRIIIb (Homo sapiens, UniProt O75015).
T3 construct: purchased Sino Biological
On the procedure:
(§2) Site mutations (L234F and S239C) in the Fc region of anti-5T4 bispecific antibody-drug conjugates were designed to mitigate potential side effects which could be caused by the antibody effector function. To confirm the mutations had the intended effect of reducing Fc receptor binding activities, the affinities between an anti-5T4 bispecific antibody with Fc mutations and an array of Fc receptors were evaluated by Biacore assay. A total of 5 Fc receptors, including FcγRI (Abcam), FcγRIIa, FcγRIIb, FcγRIIIa (158V), and FcγRIIIb (Sino Biological), were analyzed. One parental anti-5T4 Antibody (Ab1) without Fc mutations, was used as a positive control for FcR binding. SPR kinetic experiments were performed on Biacore 8K systems (GE Healthcare) with HBS-EP+ as running buffer. Antibodies were captured in the active flow cell of a protein A sensor chip (Cytiva). Capture level for each ligand was maintained between 50-100RU. For kinetic analysis, each receptor was serially diluted to 6 different concentrations, ranging from 0.41 nM to 100 nM, and the serial dilutions were injected sequentially over both reference and active flow cells in each single channel. After each binding cycle, the sensor chip was regenerated with glycine solution, pH 1.5. The resulting sensorgrams were fitted with a one-to-one binding model to extract kinetic constants using Biacore 8K Evaluation Software.
(§3) Site mutations (L234F, S239C and N434A) in the Fc region of the Bs3-HL biparatopic antibody are designed to mitigate potential side effects caused by the antibody effector function.

Another test deals with T4, FcγRIIb (Homo sapiens, UniProt P31994).
T4 construct: purchased Sino Biological
T4 sequence (P31994 43-310): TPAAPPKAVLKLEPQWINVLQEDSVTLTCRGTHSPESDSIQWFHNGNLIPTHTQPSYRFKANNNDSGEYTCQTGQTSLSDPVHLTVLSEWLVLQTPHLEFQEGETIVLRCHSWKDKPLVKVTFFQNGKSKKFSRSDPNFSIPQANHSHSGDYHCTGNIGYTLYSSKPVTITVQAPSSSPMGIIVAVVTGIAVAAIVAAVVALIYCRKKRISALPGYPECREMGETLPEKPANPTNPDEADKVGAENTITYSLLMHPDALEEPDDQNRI
On the procedure: as §2, §3

The next test addresses T5, FcγRIIa (Homo sapiens, UniProt P12318).
T5 construct: purchased Sino Biological
T5 sequence (P12318 34-317): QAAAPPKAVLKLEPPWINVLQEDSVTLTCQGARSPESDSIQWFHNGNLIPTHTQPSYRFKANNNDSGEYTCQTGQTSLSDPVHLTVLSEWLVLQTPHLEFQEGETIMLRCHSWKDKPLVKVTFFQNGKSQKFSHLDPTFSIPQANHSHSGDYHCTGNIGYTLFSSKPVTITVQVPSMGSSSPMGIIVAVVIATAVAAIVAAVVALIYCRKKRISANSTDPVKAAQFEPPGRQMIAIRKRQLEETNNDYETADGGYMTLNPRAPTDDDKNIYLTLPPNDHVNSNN
On the procedure: as §2, §3

T3 sequence (O75015 17-200): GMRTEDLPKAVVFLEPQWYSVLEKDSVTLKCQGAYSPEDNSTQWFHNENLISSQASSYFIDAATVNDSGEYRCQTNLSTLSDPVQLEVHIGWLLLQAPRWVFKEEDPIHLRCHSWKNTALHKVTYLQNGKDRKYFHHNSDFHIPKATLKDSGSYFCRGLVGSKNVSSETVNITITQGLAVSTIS
T1 sequence (P08637 17-208 F176V limits assumed): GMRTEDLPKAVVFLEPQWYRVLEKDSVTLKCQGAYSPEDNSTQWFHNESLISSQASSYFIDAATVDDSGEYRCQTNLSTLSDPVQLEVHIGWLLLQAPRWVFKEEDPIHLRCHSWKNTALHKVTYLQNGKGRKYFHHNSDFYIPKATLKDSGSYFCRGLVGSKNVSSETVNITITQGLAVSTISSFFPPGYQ
T2 sequence (P12314 16-374): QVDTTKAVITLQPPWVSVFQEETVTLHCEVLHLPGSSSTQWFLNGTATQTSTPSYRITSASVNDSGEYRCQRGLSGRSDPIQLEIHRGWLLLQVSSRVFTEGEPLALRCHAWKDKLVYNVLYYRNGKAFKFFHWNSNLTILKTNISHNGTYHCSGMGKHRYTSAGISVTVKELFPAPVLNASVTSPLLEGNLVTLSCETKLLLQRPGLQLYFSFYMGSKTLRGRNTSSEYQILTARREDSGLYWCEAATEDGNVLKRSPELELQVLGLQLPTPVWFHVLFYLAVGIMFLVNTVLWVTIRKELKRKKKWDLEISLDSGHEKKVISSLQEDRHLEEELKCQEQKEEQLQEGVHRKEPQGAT

B1: Parental Ab1 without Fc mutations: parental anti-5T4 Antibody (Ab1) without Fc mutations, used as a positive control for FcR binding (antibody, V domains shown)
VH: QVQLVQSGAEVKKPGASVKVSCKASGYSFTDYYMHWVRQAPGQGLEWMGRVSPNNGATNTNQKFKDRVTMTRDTSISTAYMELRSLRSEDTAVYYCARSTMITSYYFDYWGQGTLVTVSS
VL: DIVMTQSPSFLSVSVGDRVTITCKASQSVSTDVAWYQQKPGQAPKLLIYFASDRYTGVPDRFSGSGSGTDFTFTISSLQAEDVAVYYCQQDYSSPPTFGGGTKLEIK
On to B1, for which the Kd in the test with FcγRIIIa (158V) stood at 50.5 nM; with FcγRI, 3.73 nM; in the test with FcγRIIb, 111 nM; with FcγRIIa, 98.6 nM. Also, in the test with FcγRIIIb, the “KD for binding to FcγRIIIb” value is recorded as “No binding”.
